In patent US20230331828A1:
Positions count from the first letter of the chain named.

B1: h3818G (antibody, V domains shown)
VH: EVQLLESGGGLVQPGGSLRLSCAASGFTFANYGMSWVRQAPGKGLEWVASVRSGGSRTYYSDNVKGRFTISRDNSKNTLYLQMNSLRAEDTAVYYCVRYDHYSGSSDYWGQGTLVTVSS
VL: DVVMTQSPLSLPVTLGEPASISCKSSQSLMDTDGKTYLNWLLQKPGQSPQRLIYKVSNRESGVPDRFSGSGSGTDFTLKISRVEAEDVGVYYCWQGTHFPRTFGQGTKVEIK
B2: h49k3G (antibody, V domains shown)
VH: B1 VH with A30S, Y32F, S56G, S105T
VL: B1 VL with M30L, T32S, E60D
B3: h2826 (antibody, V domains shown)
VH: B1 VH with A30S, Y32F, G55S, S56G, S105T
VL: B1 VL with L15P, M30L, T32Y, E60D
B4: h4921G (antibody, V domains shown)
VH: B1 VH with A30S, Y32F, S56G, S105T
VL: B1 VL with M30L, T32S, K55R, S57T, E60D, S61T
B5: h4917G (antibody, V domains shown)
VH: B1 VH with A30S, Y32F, S56G, S105T
VL: B1 VL with M30L, T32S, S57T, T102S
B6: h2926 (antibody, V domains shown)
VH: B1 VH with A30S, Y32F, G55S, S56G, S103T, S105T
VL: B1 VL with L15P, M30L, T32Y, E60D
B7: h2727 (antibody, V domains shown)
VH: B1 VH with A30S, V51I, G55S, S56G
VL: B1 VL with L15P, M30L, T32Y, E60D, T102S
B8: h2927 (antibody, V domains shown)
VH: B1 VH with A30S, Y32F, G55S, S56G, S103T, S105T
VL: B1 VL with L15P, M30L, T32Y, E60D, T102S
B9: h2929 (antibody, V domains shown)
VH: B1 VH with A30S, Y32F, G55S, S56G, S103T, S105T
VL: B1 VL with L15P, K24R, M30V, T32Y, K44R, E60D, T97S, T102S, F103Y
B10: h2731 (antibody, V domains shown)
VH: B1 VH with A30S, V51I, G55S, S56G
VL: B1 VL with M30L, T32Y, K55R, S57T, E60D, S61T, T102S

molecular target: Aβ1-42 fibrils (human); test: competition ELISA; plate coated with fibril Aβ42; competitor hBP-biotin; IC50 of test divided by IC50 of hBP
Sequence (peptide, as listed by the source): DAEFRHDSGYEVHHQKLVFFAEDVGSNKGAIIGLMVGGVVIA

IC50 ratio (test:hBP) | Binder
1.18 | B1
2.16 | B2
1.1 | B3
1.01 | B4
2.69 | B5
0.99 | B6
3.06 | B7
1.6 | B8
1.16 | B9

molecular target: Aβ plaques in APPxPS1 mouse brain (human) (UniProt P05067); test: in vivo target engagement; APPxPS1 mice dosed 3 mg/kg SC weekly for three weeks; anti-human IgG IHC of cerebral cortex, % stained area
Sequence (P05067 672-713): as the sequence (peptide, as listed by the source) above

Plaque Binding (% ROI) | Binder
0.07 | B10

molecular target: Aβ plaques in APPxPS1 mouse brain (human) (UniProt P05067); test: in vivo target engagement; APPxPS1 mice dosed 10 mg/kg SC weekly for three weeks; anti-human IgG IHC of cerebral cortex, % stained area

Plaque Binding (% ROI) | Binder
0.079 | B10
